Reference: article PMC5374433, “Theranostic Value of Multimers: Lessons Learned from Trimerization of Neurotensin Receptor Ligands and Other Targeting Vectors” (Pharmaceuticals, 2017)
Where two headings read alike, the source gives them in different places.

What was measured:
human NTS1 = human NTS1 (Homo sapiens, UniProt P30989); assay: Competitive radioligand binding assay, NTS1; conditions: Ki (NTS1, nM), membranes of CHO cells stably expressing human NTS1; mean ± SEM, 4-8 experiments
Experimental: (§1) Receptor binding data were performed as described previously. […] NTS2 binding was conducted using homogenates of membranes from HEK 293 cells transiently transfected with pcDNA3.1 carrying the human NTS2 gene (Missouri S&T cDNA Resource Center (UMR), Rolla, MO, USA) using the Mirus TransIT-293 transfection reagent (MoBiTec, Göttingen, Germany) according to the manufacturer’s protocol.
(§2) Data analysis of the competition binding curves from the radioligand displacement experiments was done by non-linear regression analysis when applying the algorithms of the PRISM 6.0 software package (GraphPad Software, San Diego, CA, USA). EC50 values were derived from each dose-response curve and were subsequently transformed into the corresponding Ki values by applying the equation of Cheng and Prusoff. Mean Ki values and the corresponding S.E.M. values (standard error of the mean) were determined by analyzing four to eight individual experiments.

[1] = Octanol/PBS distribution coefficient log D pH 7.4; format: physicochemical
[2] = Biodistribution, LNCaP xenograft; conditions: in vivo, 60 min p.i., estimated from PET ROI analysis, ± SD
PSMA = test system: PSMA; set-up: method as in PMID 25999035; conditions: Ga complexes; read-out: Affinity IC50 (nM), PSMA; cited from earlier work
αvβ6 integrin [3] = assay: Affinity to αvβ6 integrin; format: binding; conditions: Ga complexes
[4] = in vivo, H2009 xenograft, 90 min p.i., estimated from PET ROI analysis, ± SD
αvβ6 integrin [5] = test system: αvβ6 integrin; set-up: method as in PMID 27980050; conditions: Ga complexes; read-out: Affinity IC50 (nM), αvβ6 integrin; cited from earlier work
human NTS2 = biological target: T1, human NTS2 (Homo sapiens, UniProt O95665); assay: Competitive radioligand binding assay, NTS2
T1 construct: host or cells: HEK 293 cells (transient transfection, pcDNA3.1)
Experimental: as §1, §2

[6] = Biodistribution in HT29 tumor-bearing nude mice; format: in vivo, mouse; conditions: mouse, in vivo, 60 min p.i.
Experimental: For in vivo evaluation of [^68Ga]Ga-TRAP(NT4)3 the NTS1-positive human colorectal adenocarcinoma cells HT29 were injected in nude mice to generate a subcutaneous tumor. The radioligand was injected in the tail vein of the mice and the biodistribution was determined 60 and 90 min after tracer injection. […] The clearance rate of [^68Ga]Ga-TRAP(NT4)3 in these excretion organs was apparently low. […] (1.44 %ID/g). Blocking experiments were performed to confirm the specificity of the tumor uptake of [^68Ga]Ga-TRAP(NT4)3 in vivo. Therefore, TRAP(NT4)3 (20 nmol) or NT4 (100 nmol) were co-injected together with the radiotracer to define the nonspecific uptake of the tracer in the tumor region. […] Apart from the intestine, the uptake in all other organs was not affected by the blocking substances (Table 2), confirming the receptor-mediated uptake of [^68Ga]Ga-TRAP(NT4)3, as it was reported that NTS receptors are expressed in the small intestine of mice.
All animal experiments were performed in compliance with the protocols approved by the local Animal Protection Authorities (Regierung Mittelfranken, Germany, no. 54-2532.1-15/08). Female athymic NMRI nude mice (nu/nu) were obtained from Harlan Winkelmann GmbH (Borchen, Germany) at four weeks of age and were kept under standard conditions (12 h light/dark) with food and water available ad libitum for at least five weeks. HT29 tumors were generated as described before.
HT29 xenografted nude mice were injected with [^68Ga]Ga-TRAP(NT4)3 into a tail vein (2.5–7.5 MBq/mouse). The animals were killed by cervical dislocation 60 or 90 min p.i. The tumors, other tissues (lung, liver, kidneys, heart, spleen, brain, muscle, femur, and intestine) and blood were removed and weighed. Radioactivity of the samples was measured using a γ-counter and expressed as the percentage of injected dose per gram of tissue (%ID/g), from which tumor-to-blood ratios were calculated. Blocking experiments were carried out by co-injecting randomly chosen mice with TRAP(NT4)3 (20 nmol/mouse) or NT4 (100 nmol/mouse) together with the radiotracer. These mice were killed by cervical dislocation at 60 min p.i., and organs and tissue were removed, weighed, and counted as described above.

[7] = in vivo; cited from earlier work
[8] = cited from earlier work
H2009 xenograft = conditions: in vivo, 1.5 h; cited from earlier work

Sequence of human NTS1 (P30989 whole entry): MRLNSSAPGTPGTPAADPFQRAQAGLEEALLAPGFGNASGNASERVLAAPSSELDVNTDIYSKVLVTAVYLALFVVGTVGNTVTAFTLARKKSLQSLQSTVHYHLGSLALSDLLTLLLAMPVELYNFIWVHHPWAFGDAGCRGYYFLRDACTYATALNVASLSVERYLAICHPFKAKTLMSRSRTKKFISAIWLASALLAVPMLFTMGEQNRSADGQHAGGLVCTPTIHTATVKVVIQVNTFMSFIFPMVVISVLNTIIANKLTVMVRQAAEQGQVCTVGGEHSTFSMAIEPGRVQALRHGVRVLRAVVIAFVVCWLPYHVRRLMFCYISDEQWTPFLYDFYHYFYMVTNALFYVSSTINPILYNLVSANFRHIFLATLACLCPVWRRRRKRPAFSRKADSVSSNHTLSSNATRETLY
T1 sequence (O95665 whole entry): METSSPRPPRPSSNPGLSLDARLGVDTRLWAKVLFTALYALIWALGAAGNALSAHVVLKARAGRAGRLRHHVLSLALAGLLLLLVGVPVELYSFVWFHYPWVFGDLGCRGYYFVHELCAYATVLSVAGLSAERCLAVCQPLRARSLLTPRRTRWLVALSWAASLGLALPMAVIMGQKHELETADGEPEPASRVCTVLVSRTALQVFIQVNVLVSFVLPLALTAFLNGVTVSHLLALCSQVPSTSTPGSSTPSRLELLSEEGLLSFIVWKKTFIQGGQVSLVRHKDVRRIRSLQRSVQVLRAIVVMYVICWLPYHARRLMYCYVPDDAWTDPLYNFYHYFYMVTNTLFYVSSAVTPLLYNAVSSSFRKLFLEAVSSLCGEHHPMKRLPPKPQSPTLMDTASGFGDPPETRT

## CC(C)C[C@H](NC(=O)[C@@H](NC(=O)[C@H](Cc1ccc(O)cc1)NC(=O)[C@@H]1CCCN1C(=O)[C@H](CCCCN)NC(=O)CN(CCCCN)C(=O)[C@@H](N)CCCCn1cc(CNC(=O)CCP(=O)(O)CN2CCN(CP(=O)(O)CCC(=O)NCc3cn(CCCC[C@H](N)C(=O)N(CCCCN)CC(=O)N[C@@H](CCCCN)C(=O)N4CCC[C@H]4C(=O)N[C@@H](Cc4ccc(O)cc4)C(=O)N[C@H](C(=O)N[C@@H](CC(C)C)C(=O)O)C(C)(C)C)nn3)CCN(CP(=O)(O)CCC(=O)NCc3cn(CCCC[C@H](N)C(=O)N(CCCCN)CC(=O)N[C@@H](CCCCN)C(=O)N4CCC[C@H]4C(=O)N[C@@H](Cc4ccc(O)cc4)C(=O)N[C@H](C(=O)N[C@@H](CC(C)C)C(=O)O)C(C)(C)C)nn3)CC2)nn1)C(C)(C)C)C(=O)O (single isomer, unassigned) [Ga-TRAP(NT4)3]
Human NTS1
  Ki: 0.12 ± 0.03 nM

## O=C(O)CC[C@H](NC(=O)N[C@@H](CCCCNC(=O)CCCCCCC(=O)NCCCC[C@H](NC(=O)[C@H](Cc1ccccc1)NC(=O)[C@H](Cc1ccccc1)NC(=O)CCC(C(=O)O)N1CCN(CC(=O)O)CCN(CC(=O)O)CCN(CC(=O)O)CC1)C(=O)O)C(=O)O)C(=O)O (stereo partly shown) [DOTAGA-DUPA]
[1]
  logD: -3.6 ± 0.2
[2]; read-out: Blood %ID/g
  tissue uptake at 1 h: 2.5 ± 0.14 %ID/g
[2]; read-out: Kidney %ID/g
  tissue uptake at 1 h: 29 ± 7 %ID/g
[2]; read-out: Liver %ID/g
  tissue uptake at 1 h: 2 ± 0.17 %ID/g
[2]; read-out: Muscle %ID/g
  tissue uptake at 1 h: 1.2 ± 0.13 %ID/g
[2]; read-out: Tumor %ID/g
  tissue uptake at 1 h: 2 ± 0.2 %ID/g
PSMA
  IC50: 36 nM

## CC(C)C[C@@H]1NC(=O)[C@H](CC(=O)O)NC(=O)CNC(=O)[C@H](CCCNC(=N)N)NC(=O)[C@H](Cc2ccccc2)NC(=O)[C@H](CCCCNC(=O)CCc2cn(CCCNC(=O)CCP(=O)(O)CN3CCN(CP(=O)(O)CCC(=O)NCCCn4cc(CCC(=O)NCCCC[C@H]5C(=O)N[C@@H](Cc6ccccc6)C(=O)N[C@@H](CCCNC(=N)N)C(=O)NCC(=O)N[C@@H](CC(=O)O)C(=O)N[C@@H](CC(C)C)C(=O)N[C@@H](C)C(=O)N[C@@H](Cc6ccccc6)C(=O)N6CCC[C@@H]6C(=O)N5C)nn4)CCN(CP(=O)(O)CCC(=O)NCCCn4cc(CCC(=O)NCCCC[C@H]5C(=O)N[C@@H](Cc6ccccc6)C(=O)N[C@@H](CCCNC(=N)N)C(=O)NCC(=O)N[C@@H](CC(=O)O)C(=O)N[C@@H](CC(C)C)C(=O)N[C@@H](C)C(=O)N[C@@H](Cc6ccccc6)C(=O)N6CCC[C@@H]6C(=O)N5C)nn4)CC3)nn2)N(C)C(=O)[C@H]2CCCN2C(=O)[C@H](Cc2ccccc2)NC(=O)[C@H](C)NC1=O [TRAP(AvB6)3]
αvβ6 integrin [3]
  Affinity factor monomer/trimer, αvβ6 integrin: 11
[4]; Blood %ID/g
  tissue uptake at 1.5 h: 1.9 ± 0.15 %ID/g
[4]; Kidney %ID/g
  tissue uptake at 1.5 h: 17.7 ± 6.5 %ID/g
[4]; Liver %ID/g
  tissue uptake at 1.5 h: 3.7 ± 0.14 %ID/g
[4]; Muscle %ID/g
  tissue uptake at 1.5 h: 0.71 ± 0.1 %ID/g
[4]; Tumor %ID/g
  tissue uptake at 1.5 h: 0.92 ± 0.08 %ID/g
αvβ6 integrin [5]
  IC50: 0.023 nM

## CC(C)C[C@H](NC(=O)[C@@H](NC(=O)[C@H](Cc1ccc(O)cc1)NC(=O)[C@@H]1CCCN1C(=O)[C@H](CCCCN)NC(=O)CN(CCCCN)C(=O)[C@@H](N)CCCCn1cc(CNC(=O)CCP(=O)(O)CN2CCN(CP(=O)(O)CCC(=O)NCc3cn(CCCC[C@H](N)C(=O)N(CCCCN)CC(=O)N[C@@H](CCCCN)C(=O)N4CCC[C@H]4C(=O)N[C@@H](Cc4ccc(O)cc4)C(=O)N[C@H](C(=O)N[C@@H](CC(C)C)C(=O)O)C(C)(C)C)nn3)CCN(CP(=O)(O)CCC(=O)NCc3cn(CCCC[C@H](N)C(=O)N(CCCCN)CC(=O)N[C@@H](CCCCN)C(=O)N4CCC[C@H]4C(=O)N[C@@H](Cc4ccc(O)cc4)C(=O)N[C@H](C(=O)N[C@@H](CC(C)C)C(=O)O)C(C)(C)C)nn3)CC2)nn1)C(C)(C)C)C(=O)O [TRAP(NT4)3]
Human NTS1
  Ki: 0.47 ± 0.05 nM
Human NTS2
  Ki: 260 ± 50 pM
[6]; read-out: HT29 tumor uptake
  tissue uptake at 1 h: 1.74 %ID/g
[6]; read-out: blood uptake
  tissue uptake at 1 h: 0.13 %ID/g
[6]; read-out: kidney uptake
  tissue uptake at 1 h: 95 %ID/g
[6]; read-out: liver uptake
  tissue uptake at 1 h: 11 %ID/g
[6]; read-out: muscle uptake
  tissue uptake at 1 h: 0.09 %ID/g
[1]; octanol/PBS, Ga complex, ± standard deviation, first reported herein, read-out: log D pH 7.4
  logD: -3.7 ± 0.1

## Arg^8-Arg^9-Pro^10-Tyr^11-Ile^12-Leu^13-OH [NT(8–13)]
[7]
  biological half-life: only a few minutes, or even less

## TRAP(AvB6)1: Ga-monomer of c(FRGDLAF-p[NMe]K), αvβ6 integrin (cyclo(FRGDLAF); not fully specified (C-terminus); also: TRAP chelator Ga complex, attachment site not given here)
αvβ6 integrin [5]
  IC50: 0.26 nM
[8]
  log D pH 7.4: −3.7
H2009 xenograft
  Blood %ID/g: 0.17 %ID/g
  Kidney %ID/g: 4.3 %ID/g
  Liver %ID/g: 0.36 %ID/g
  Muscle %ID/g: 0.06 %ID/g
  Tumor %ID/g: 0.65 %ID/g
